Measured values published in US12708677B2, “Contrast agents, methods for preparing contrast agents, and methods of imaging” (Georgia State University Research Foundation, Inc., priority 2008, dated 2026).

B1: CA1.CD2: designed Gd^3+-binding protein, domain 1 of rat CD2 with ligand residues Glu15, Glu56, Asp58, Asp62, Asp64 (protein)
chain: RDSGTVWGALGHGIELNIPNFQMTDDIDEVRWERGSTLVAEFKRKMKPFLKSGAFEIDANGDLDIKNLTRDDSGTYNVTVYSTNGTRILNKALDLRILE
B2: Gd-CA1.CD2: CA1.CD2 in complex with Gd^3+ (protein)
chain: B1 chain

How the values were obtained:
[1] = Zn^2+ binding affinity, dye competition assay (FluoZin)
Source text: FIG. 1.6: Measurement of metal binding constants. Gd^3+ binding affinity (FIG. 1.6a) and Zn^2+ binding affinity (FIG. 1.6b) of CA1.CD2 measured by dye competition assays. CA1.CD2 stock solution was gradually added into the 1:1 dye-metal complex to compete for the dye-bound metal ions. The insets show the titration curve for the dye indicators fluo 5N (FIG. 1.6a) and FluoZin (FIG. 1.6b), respectively. (FIG. 1.6c) La^3+ binding affinity obtained by Aromatic residue sensitized Tb^3+ luminescence energy transfer. The Tb^3+ fluorescence of a protein-Tb^3+ mixture decreases with the addition of La^3+. The La^3+ concentrations are 0, 0.30, 0.76, 5.95, 11.03, and 28.95 μM from top to bottom. The Tb^3+ fluorescence decrease competition was fitted (line) by a normal competition plus a nonspecific quenching effect (inset).
Since metal selectivity for Gd^3+ over other physiological metal ions is for minimizing the toxicity of the agents,^39, 40 we measured metal binding constants using dye-competition assays with various chelate-metal buffer systems (Table 1). Low limit metal binding affinities of the proteins were also estimated based on Tb^3+-sensitized FRET and competition assays. […] This is considered for in vivo applications of the contrast agent as the phosphate concentration in serum is maintained at ~1.3 mM.^6, 9 The stability of a contrast agent in blood circulation is another factor for in vivo applications. We characterized the stability by incubating Gd-CA1.CD2 with 75% human serum at 37° C. for 3 and 6 hours.
Metal binding affinity for Ca^2+ and Zn^2+ were determined using similar competition methods and specific dyes with proper Kd values.

[2] = Dynamic NMR, rotational correlation time and S^2 order; format: physicochemical
Method: Therefore, the measured correlation time of the protein directly reflects the τR of the metal binding site. In contrast, the flexible metal binding loop in CA9.CD2 has an S^2 order value of 0.3-0.4, which is very different from CA1.CD2 with an S^2 value very close to that of the backbone of the protein.
Pulse field diffusion NMR was applied to measure the hydrodynamic radii of the protein (Lee et al., BBA 2003) with Protein samples CA1.CD2 and its variants of 0.2 mM in buffer, Lysozme and diaxone were used as an external and internal reference for calibration. The correlation size of the protein was measured using TauC pulse sequence developed by the Prestegard lab at UGA using ^15N labeled protein.

[3] = mouse, in vivo
Method: Blood Circulation Time, Tissue Retention Time, and Bio-distribution. CD-1 mice (25-30 g, a group of four mice were tested) were anesthetized with isoflurane. Appropriate dosages of Gd-CA1.CD2 or Gd-DTPA were i.v. injected (via tail vein). Blood (~50 μl) samples were collected via orbital sinus of the mouse at different time points. The mouse was euthanized at the final time point. Tissue samples from kidney, liver, heart, and lung, were collected. Serum samples were prepared from the collected blood. For the bio-distribution analyses, the animals were euthanized at single time point (indicated) after i.v. administration of the contrast agent (indicated). The organ/tissue samples were collected. Tissue extracts were freshly made from collected samples using commercially available tissue extracting kits (Qiagen). CA1.CD2 was detected and quantified by immunoblotting and Sandwich-ELISA using a monoclonal antibody (OX45, detecting antibody) and a home made polyclonal antibody (PabCD2, capture antibody). A series of known amounts of CA1.CD2 samples mixed with blank mouse scrum or tissue extracts were used as standard in Sandwich-ELISA. ELISA signal from HRP was monitored using a Fluorstar fluorescence microplate reader. For quantification of Gd^3+ in the serum and tissue samples one hour (or indicated times) after the contrast agent administration, animals were sacrificed and critical organs were collected, and the tissues were then digested with concentrated nitric acid at 120-130° C. with proper amount of ^157Gd spike as an internal marker. The digested solution was analyzed by ICP-MS (Element 2) using an isotope dilution method.
CD-1 mice (25-30 g) were anesthetized with isoflurane. Appropriate dosages of Gd-CA1.CD2 and its PEgylated variants (with Gd and ^153Gd) or Gd-DTPA were i.v. injected (via tail vein). Blood (~50 μl) samples were collected via orbital sinus of the mouse at different time points. The mouse was euthanized at the final time point. Tissue samples from kidney, liver, heart, and lung were collected. Serum samples were prepared from the collected blood. For the bio-distribution analyses, the animals were euthanized at single time point (indicated) after i.v. administration of the contrast agent (indicated). The organ/tissue samples were collected. Tissue extracts were freshly made from collected samples using commercially available tissue extracting kits (Qiagen). CA1.CD2 and its variants were detected and quantified by immunoblotting and Sandwich-ELISA using a monoclonal antibody (OX45, detecting antibody) and a home made polyclonal antibody (PabCD2, capture antibody). A series of known amounts of CA1.CD2 samples mixed with blank mouse serum or tissue extracts were used as standard in Sandwich-ELISA. ELISA signal from HRP was monitored using a Fluorstar fluorescence microplate reader. For quantification of Gd^3+ in the serum and tissue samples one hour (or indicated times) after the contrast agent administration, animals were sacrificed and critical organs were collected, and the tissues were then digested with concentrated nitric acid at 120-130° ° C. with proper amount of ^153Gd spike as an internal marker. The digested solution was analyzed.

[4] = Protein solubility by concentrating to precipitation; format: physicochemical; conditions: current formulation
Method: Protein was expressed in E. coli as inclusion body and purified using urea refolding and ion-exchange column. N15 labeled protein was expressed in SV medium as GST fusion (Yang et al., Biochem 2006) and purification was by GST-4B affinity column and SP column. Protein was verified by mass spectrometry. Protein concentration was calculated using extinction coefficient of w.t. CD2 of 11,000 (Ye et al., 2001). Protein solubility was determined by concentrating proteins to reach to precipitation using speed vac.

EMT6 cells = assay: Cell binding by immuno-fluorescence staining; format: cell-based, mouse
Source text: We first examined whether the designed CA1.HER2/Affi can target cancer cells by cell binding analyses. We used two cancer cell lines for the binding analyses. AU565 is derived from breast carcinoma. EMT6 is a mouse mammary tumor cell line. AU565 cells express very high levels of HER2. The EMT is regarded as a HER2 negative cell line. Binding of the Gd-CA1.HER2/Affi to the cancer cells was first analyzed by immuno-fluorescence staining using a polyclonal antibody against PEGylated parental protein CA1.CD2 (PAbPGCA1).

[5] = In vitro r1 and r2 proton relaxivity; format: physicochemical; conditions: 3.0 T; 50 μM designed agents, 100 μM Gd-DTPA

Molecule | Metal binding constant (Log Ka) Zn^2+ [1] | disassociation constant (Kd) for Zn^2+ [1] | Log (KGd/KZn) ([1]; metal selectivity) | overall correlation time ([2]; absence of bound metal ions) | overall correlation time ([2]; presence of bound metal ions) | time first detectable in the kidney [3] | time of peak in the kidney [3] | injected dose remaining in the kidney ([3]; 15 h) | time of sharp decrease in blood concentration of Gd^3+ and CA1.CD2 ([3]; iv) | solubility [4] | binding to EMT6 cells (EMT6 cells) | contrast enhancement in T1 weighted imaging of samples [5] | time remaining in blood circulation [3] | time without significant decrease in CA1.CD2 levels in blood ([3]; iv)
B1 | 6.72 | 190 nM | 5.34 | 9.20 ns | 9.08 ns | 15 min | 4 to 5 h | less than 10% | about 50 minutes | ~ 0.7 mM | did not bind to either of the tested cultured cells | did not lead to significant enhancement | – | –
B2 | – | – | – | – | – | – | – | – | – | – | – | able to introduce contrast enhancement | more than 3 hours | 45 min
